Source: patent publication US20030144205A1

Target: T1, mouse RFPL4, full-length (amino acid residues 1-287) (mouse) (UniProt Q8VH31)
T1 sequence (looked up): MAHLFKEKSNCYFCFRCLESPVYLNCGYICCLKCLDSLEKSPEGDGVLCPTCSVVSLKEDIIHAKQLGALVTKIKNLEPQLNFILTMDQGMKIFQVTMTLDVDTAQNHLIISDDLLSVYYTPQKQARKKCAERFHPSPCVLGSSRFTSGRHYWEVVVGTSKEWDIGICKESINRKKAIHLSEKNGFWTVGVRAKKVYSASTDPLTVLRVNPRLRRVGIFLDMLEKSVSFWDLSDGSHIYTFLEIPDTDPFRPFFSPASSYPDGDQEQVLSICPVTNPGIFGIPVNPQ
Test: yeast two-hybrid mating screen of the ovary cDNA library with pGBKT7-RFPL4 as bait

B1: Phosphoserine/threonine/tyrosine interaction protein (STYX) (protein, mouse, UniProt Q60969 1-223, looked up)
chain: MEDVKLEFPSLPQCKDDAEEWTYPMRREMQEVLPGLFLGPYSSAMKSKLPILQKHGITHIICIRQNIEANFIKPNFQQLFRYLVLDIADNPVENIIRFFPMTKEFIDGSLQNGGKVLVHGNAGISRSAAFVIAYIMETFGMKYRDAFAYVQERRFCINPNAGFVHQLQEYEAIYLAKLTIQMMSPLQIERSLAVHSGTTGSVKRTHEEDDDFGNMQVATAQNG
# of clones: 1 clones
